Molecular target: D1 receptor of human renal proximal tubule cells (UniProt P21728)
Sequence (P21728 whole entry): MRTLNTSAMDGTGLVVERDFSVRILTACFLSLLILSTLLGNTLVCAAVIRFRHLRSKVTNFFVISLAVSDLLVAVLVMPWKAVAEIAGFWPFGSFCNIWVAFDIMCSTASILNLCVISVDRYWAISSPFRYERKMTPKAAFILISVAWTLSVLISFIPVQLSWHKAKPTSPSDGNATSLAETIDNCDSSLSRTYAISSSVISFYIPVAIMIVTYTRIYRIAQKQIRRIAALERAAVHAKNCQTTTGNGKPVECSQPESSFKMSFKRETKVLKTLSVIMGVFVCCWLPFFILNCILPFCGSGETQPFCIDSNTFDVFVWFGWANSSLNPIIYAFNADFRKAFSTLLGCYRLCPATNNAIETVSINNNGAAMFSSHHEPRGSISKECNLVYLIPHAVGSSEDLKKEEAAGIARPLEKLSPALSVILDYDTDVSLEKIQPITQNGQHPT

GRK4 of human renal proximal tubule cells
serine phosphorylation of the D1 receptor (immunoprecipitation with anti D1 receptor antibody, anti-phosphoserine immunoblot) after GRK4 antisense treatment: GRK4 antisense treatment almost completely abolished the phosphorylation of the D1 receptor in fenoldopam-treated renal proximal tubule cells from hypertensive subjects to levels that are lower than basal values

Reference: US20050089871
